Laboratory results reported in the supplement of paper PMC10567573.

B1: FAM189A2 (parent)
chain: VAAALRYLQIFATRRSCIDESQIS
B2: PTPN9 (parent)
chain: ILFSLPPALDWDSVHVPGPHAMTI

Variants of: B1
Assay: protein stability index of a GFP-peptide fusion (GPS, HEK-293T) (PSI 1-6); higher = more stable
Conditions: c terminus: a fixed tail appended
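Note: lentivirally expressed fusions sorted by FACS into six bins by GFP to DsRed ratio, PSI derived from sequencing read proportions per bin multiplied by bin number.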

Variant	protein stability index
VAAALRYLQIFATRRSCIYESQIS [D19Y]	4.69
VAAALRYLQIFATRRSCIVESQIS [D19V]	3.57
VAAALRYLQIFATRRSCIWESQIS [D19W]	4.35
VAAALRYLQIFATRRSCITESQIS [D19T]	2.36
VAAALRYLQIFATRRSCIDESQPS [I23P]	2.46
VAAALRYLQIFATRRSCIDESQKS [I23K]	1.94
VAAALRYLQIFATRRSCIDESQSS [I23S]	1.84
VAAALRYLQIFATRRSCIDESQAS [I23A]	1.24
VAAALRYLQIFATRRSCIDESQNS [I23N]	3.01
VAAALRYLQIFATRRSCIDESQFS [I23F]	2.9
VAAALRYLQIFATRRSCIDESQWS [I23W]	1.87
VAAALRYLQIFATRRSCIDESQTS [I23T]	2.18
VAAALRYLQIFATRRSCIDESQGS [I23G]	1.52
VAAALRYLQIFATRRSCIDESQDS [I23D]	1.77
VAAALRYLQIFATRRSCIDESQLS [I23L]	1.61
VAAALRYLQIFATRRSCIDESQYS [I23Y]	3.27
VAAALRYLQIFATRRSCIDESQES [I23E]	2.76
VAAALRYLQIFATRRSCIDESQRS [I23R]	1.91
VAAALRYLQIFATRRSCIDESQHS [I23H]	1.69
VAAALRYLQIFATRRSCIDESQCS [I23C]	1.73
VAAALRYLQIFATRRSCIDESQQS [I23Q]	1.88

Variant	protein stability index
VAAALRYLQIFATRRSCIDESQMS [I23M]	1.35
VAAALRYLQIFATRRSCIDESQIQ [S24Q]	2.04
VAAALRYLQIFATRRSCIDESQIM [S24M]	2.07
VAAALRYLQIFATRRSCIDESQIG [S24G]	2.54
VAAALRYLQIFATRRSCIDESQIC [S24C]	3.79
VAAALRYLQIFATRRSCIDESQIE [S24E]	1.52
VAAALRYLQIFATRRSCIDESQIK [S24K]	1.16
VAAALRYLQIFATRRSCIDESQIA [S24A]	2.76
VAAALRYLQIFATRRSCIDESQIF [S24F]	3.22
VAAALRYLQIFATRRSCIDESQIP [S24P]	4.3
VAAALRYLQIFATRRSCIDESQIY [S24Y]	1.78
VAAALRYLQIFATRRSCIDESQIH [S24H]	2.29
VAAALRYLQIFATRRSCIDESQIR [S24R]	3.04
VAAALRYLQIFATRRSCIDESQIT [S24T]	2.85
VAAALRYLQIFATRRSCIDESQII [S24I]	2.9
VAAALRYLQIFATRRSCIDECQIS [S21C]	1.98
VAAALRYLQIFATRRSCIDERQIS [S21R]	2.78
VAAALRYLQIFATRRSCIDETQIS [S21T]	2.03
VAAALRYLQIFATRRSCIDENQIS [S21N]	1.73
VAAALRYLQIFATRRSCIDEPQIS [S21P]	1.97
VAAALRYLQIFATRRSCIDEWQIS [S21W]	2.67

Variant	protein stability index
VAAALRYLQIFATRRSCIDEMQIS [S21M]	3.11
VAAALRYLQIFATRRSCIDEGQIS [S21G]	1.83
VAAALRYLQIFATRRSCIDEKQIS [S21K]	2.61
VAAALRYLQIFATRRSCIDEIQIS [S21I]	4.41
VAAALRYLQIFATRRSCIDEQQIS [S21Q]	2.85
VAAALRYLQIFATRRSCIDEYQIS [S21Y]	4.49
VAAALRYLQIFATRRSCIDEDQIS [S21D]	2.28
VAAALRYLQIFATRRSCIDEHQIS [S21H]	2.45
VAAALRYLQIFATRRSCIDEEQIS [S21E]	2.91
VAAALRYLQIFATRRSCIDELQIS [S21L]	2.45
VAAALRYLQIFATRRSCIDGSQIS [E20G]	2.34
VAAALRYLQIFATRRSCIDRSQIS [E20R]	1.24
VAAALRYLQIFATRRSCIDMSQIS [E20M]	2.92
VAAALRYLQIFATRRSCIDKSQIS [E20K]	3.19
VAAALRYLQIFATRRSCIDTSQIS [E20T]	3.24
VAAALRYLQIFATRRSCIDCSQIS [E20C]	3.76
VAAALRYLQIFATRRSCIDLSQIS [E20L]	3.32
VAAALRYLQIFATRRSCIDASQIS [E20A]	1.65
VAAALRYLQIFATRRSCIDWSQIS [E20W]	4.07
VAAALRYLQIFATRRSCIDNSQIS [E20N]	2.85
VAAALRYLQIFATRRSCIDQSQIS [E20Q]	2.35

Variant	protein stability index
VAAALRYLQIFATRRSCIDSSQIS [E20S]	2.66
VAAALRYLQIFATRRSCIDPSQIS [E20P]	3.3
VAAALRYLQIFATRRSCIDYSQIS [E20Y]	3.14
VAAALRYLQIFATRRSCIDDSQIS [E20D]	2.1
VAAALRYLQIFATRRSCIDESVIS [Q22V]	2.87
VAAALRYLQIFATRRSCIDESHIS [Q22H]	2.61
VAAALRYLQIFATRRSCIDESNIS [Q22N]	1.77
VAAALRYLQIFATRRSCIDESKIS [Q22K]	2.53
VAAALRYLQIFATRRSCIDESSIS [Q22S]	2.22
VAAALRYLQIFATRRSCIDESWIS [Q22W]	3.61
VAAALRYLQIFATRRSCIDESDIS [Q22D]	2.32
VAAALRYLQIFATRRSCIDESTIS [Q22T]	1.07
VAAALRYLQIFATRRSCIDESEIS [Q22E]	2.15
VAAALRYLQIFATRRSCIDESFIS [Q22F]	2.04
VAAALRYLQIFATRRSCIDESPIS [Q22P]	2.26
VAAALRYLQIFATRRSCIDESCIS [Q22C]	4.63
VAAALRYLQIFATRRSCIDESYIS [Q22Y]	1.16
VAAALRYLQIFATRRSCIDESGIS [Q22G]	3

Variants of: B2
Assay: as above
Conditions: c terminus: a fixed tail appended

Variant	protein stability index
IKFSLPPALDWDSVHVPGPHAMTI [L2K]	2.73
IIFSLPPALDWDSVHVPGPHAMTI [L2I]	3.33
IVFSLPPALDWDSVHVPGPHAMTI [L2V]	2.54
ICFSLPPALDWDSVHVPGPHAMTI [L2C]	3.86
IDFSLPPALDWDSVHVPGPHAMTI [L2D]	1.26
IWFSLPPALDWDSVHVPGPHAMTI [L2W]	2.54
ITFSLPPALDWDSVHVPGPHAMTI [L2T]	2.62
IFFSLPPALDWDSVHVPGPHAMTI [L2F]	2.06
IEFSLPPALDWDSVHVPGPHAMTI [L2E]	2.29
IMFSLPPALDWDSVHVPGPHAMTI [L2M]	3.37
INFSLPPALDWDSVHVPGPHAMTI [L2N]	2.6
IHFSLPPALDWDSVHVPGPHAMTI [L2H]	2.3
IPFSLPPALDWDSVHVPGPHAMTI [L2P]	1.93
IAFSLPPALDWDSVHVPGPHAMTI [L2A]	2.12
IGFSLPPALDWDSVHVPGPHAMTI [L2G]	1.68
IRFSLPPALDWDSVHVPGPHAMTI [L2R]	1.7
IQFSLPPALDWDSVHVPGPHAMTI [L2Q]	2.47
PLFSLPPALDWDSVHVPGPHAMTI [I1P]	1.93
MLFSLPPALDWDSVHVPGPHAMTI [I1M]	1.7
YLFSLPPALDWDSVHVPGPHAMTI [I1Y]	2.41
SLFSLPPALDWDSVHVPGPHAMTI [I1S]	1.99
TLFSLPPALDWDSVHVPGPHAMTI [I1T]	2.28

Variant	protein stability index
ELFSLPPALDWDSVHVPGPHAMTI [I1E]	1.71
NLFSLPPALDWDSVHVPGPHAMTI [I1N]	1.8
LLFSLPPALDWDSVHVPGPHAMTI [I1L]	1.85
QLFSLPPALDWDSVHVPGPHAMTI [I1Q]	1.7
KLFSLPPALDWDSVHVPGPHAMTI [I1K]	2.24
GLFSLPPALDWDSVHVPGPHAMTI [I1G]	2.6
DLFSLPPALDWDSVHVPGPHAMTI [I1D]	2.17
CLFSLPPALDWDSVHVPGPHAMTI [I1C]	1.64
ALFSLPPALDWDSVHVPGPHAMTI [I1A]	2.03
VLFSLPPALDWDSVHVPGPHAMTI [I1V]	3.38
FLFSLPPALDWDSVHVPGPHAMTI [I1F]	1.76
HLFSLPPALDWDSVHVPGPHAMTI [I1H]	1.56
RLFSLPPALDWDSVHVPGPHAMTI [I1R]	2.17
WLFSLPPALDWDSVHVPGPHAMTI [I1W]	1.93
ILFSLPQALDWDSVHVPGPHAMTI [P7Q]	2.33
ILFSLPAALDWDSVHVPGPHAMTI [P7A]	1.87
ILFSLPHALDWDSVHVPGPHAMTI [P7H]	4.13
ILFSLPFALDWDSVHVPGPHAMTI [P7F]	3.57
ILFSLPMALDWDSVHVPGPHAMTI [P7M]	1.68
ILFSLPDALDWDSVHVPGPHAMTI [P7D]	1.01
ILFSLPEALDWDSVHVPGPHAMTI [P7E]	2.43
ILFSLPIALDWDSVHVPGPHAMTI [P7I]	2.49

Variant	protein stability index
ILFSLPCALDWDSVHVPGPHAMTI [P7C]	2.03
ILFSLPNALDWDSVHVPGPHAMTI [P7N]	2.98
ILFSWPPALDWDSVHVPGPHAMTI [L5W]	2
ILFSTPPALDWDSVHVPGPHAMTI [L5T]	2.99
ILFSHPPALDWDSVHVPGPHAMTI [L5H]	1.76
ILFSQPPALDWDSVHVPGPHAMTI [L5Q]	1.47
ILFSVPPALDWDSVHVPGPHAMTI [L5V]	3.76
ILFSEPPALDWDSVHVPGPHAMTI [L5E]	1.47
ILFSRPPALDWDSVHVPGPHAMTI [L5R]	2.93
ILFSCPPALDWDSVHVPGPHAMTI [L5C]	2.26
ILFSSPPALDWDSVHVPGPHAMTI [L5S]	2.25
ILFSDPPALDWDSVHVPGPHAMTI [L5D]	2.43
ILFSNPPALDWDSVHVPGPHAMTI [L5N]	1.32
ILFSMPPALDWDSVHVPGPHAMTI [L5M]	2.3
ILFSFPPALDWDSVHVPGPHAMTI [L5F]	4.35
ILFSKPPALDWDSVHVPGPHAMTI [L5K]	2.25
ILFSIPPALDWDSVHVPGPHAMTI [L5I]	1.33
ILFQLPPALDWDSVHVPGPHAMTI [S4Q]	3.13
ILFHLPPALDWDSVHVPGPHAMTI [S4H]	3.16
ILFRLPPALDWDSVHVPGPHAMTI [S4R]	2.6
ILFDLPPALDWDSVHVPGPHAMTI [S4D]	2.38
ILFGLPPALDWDSVHVPGPHAMTI [S4G]	2.46

Variant	protein stability index
ILFVLPPALDWDSVHVPGPHAMTI [S4V]	2.49
ILFNLPPALDWDSVHVPGPHAMTI [S4N]	2.5
ILFWLPPALDWDSVHVPGPHAMTI [S4W]	2.79
ILFPLPPALDWDSVHVPGPHAMTI [S4P]	2.01
ILFILPPALDWDSVHVPGPHAMTI [S4I]	3.06
ILFMLPPALDWDSVHVPGPHAMTI [S4M]	3.28
ILFFLPPALDWDSVHVPGPHAMTI [S4F]	2.61
ILFALPPALDWDSVHVPGPHAMTI [S4A]	2.31
ILFLLPPALDWDSVHVPGPHAMTI [S4L]	2.55
ILFELPPALDWDSVHVPGPHAMTI [S4E]	1.75
ILFKLPPALDWDSVHVPGPHAMTI [S4K]	1.98
ILFTLPPALDWDSVHVPGPHAMTI [S4T]	2.17
ILFSLKPALDWDSVHVPGPHAMTI [P6K]	1.97
ILFSLWPALDWDSVHVPGPHAMTI [P6W]	2.15
ILFSLGPALDWDSVHVPGPHAMTI [P6G]	1.32
ILFSLRPALDWDSVHVPGPHAMTI [P6R]	3.66
ILFSLQPALDWDSVHVPGPHAMTI [P6Q]	2.46
ILFSLFPALDWDSVHVPGPHAMTI [P6F]	1.95
ILFSLAPALDWDSVHVPGPHAMTI [P6A]	3.2
ILFSLLPALDWDSVHVPGPHAMTI [P6L]	4.02
ILFSLIPALDWDSVHVPGPHAMTI [P6I]	3.44
ILFSLYPALDWDSVHVPGPHAMTI [P6Y]	2.91

Variant	protein stability index
ILFSLMPALDWDSVHVPGPHAMTI [P6M]	1.89
ILFSLCPALDWDSVHVPGPHAMTI [P6C]	2.37
ILYSLPPALDWDSVHVPGPHAMTI [F3Y]	2.21
ILKSLPPALDWDSVHVPGPHAMTI [F3K]	1.95
ILWSLPPALDWDSVHVPGPHAMTI [F3W]	1.61
ILISLPPALDWDSVHVPGPHAMTI [F3I]	2.7
ILPSLPPALDWDSVHVPGPHAMTI [F3P]	2.27
ILLSLPPALDWDSVHVPGPHAMTI [F3L]	4.01
ILASLPPALDWDSVHVPGPHAMTI [F3A]	1.1
ILQSLPPALDWDSVHVPGPHAMTI [F3Q]	3.1
ILMSLPPALDWDSVHVPGPHAMTI [F3M]	1.21
ILCSLPPALDWDSVHVPGPHAMTI [F3C]	2.62
ILSSLPPALDWDSVHVPGPHAMTI [F3S]	1.49
ILDSLPPALDWDSVHVPGPHAMTI [F3D]	1.77
ILNSLPPALDWDSVHVPGPHAMTI [F3N]	1.83
ILRSLPPALDWDSVHVPGPHAMTI [F3R]	2.25
ILHSLPPALDWDSVHVPGPHAMTI [F3H]	2.03
ILESLPPALDWDSVHVPGPHAMTI [F3E]	1.87
ILTSLPPALDWDSVHVPGPHAMTI [F3T]	2.38
